Key:
Experiment in all cases: EMSA; Gel-shift buffer not given (as described in ref. 6); TnsD stored in 500 mM KCl, 50 mM Tris-HCl pH 8.0, 1 mM EDTA, 2 mM DTT, 25% glycerol
Conditions in all cases: protein: recombinant
TnsD 1-350 = target: T1, TnsD 1-350 (Escherichia coli (transposon Tn7), UniProt P13991 1-350)
T1 sequence: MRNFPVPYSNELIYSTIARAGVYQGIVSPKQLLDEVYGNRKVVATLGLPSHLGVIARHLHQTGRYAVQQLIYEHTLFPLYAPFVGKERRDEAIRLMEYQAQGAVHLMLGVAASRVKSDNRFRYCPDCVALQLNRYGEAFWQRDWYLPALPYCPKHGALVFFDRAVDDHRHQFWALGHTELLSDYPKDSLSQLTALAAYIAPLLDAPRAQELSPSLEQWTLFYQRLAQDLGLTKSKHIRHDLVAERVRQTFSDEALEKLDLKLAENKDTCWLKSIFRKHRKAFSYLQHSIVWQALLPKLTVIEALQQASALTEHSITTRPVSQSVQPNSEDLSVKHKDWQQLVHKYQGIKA

TnsD 1-490 = target: T2, TnsD 1-490 (Escherichia coli (transposon Tn7), UniProt P13991 1-490)
T2 sequence: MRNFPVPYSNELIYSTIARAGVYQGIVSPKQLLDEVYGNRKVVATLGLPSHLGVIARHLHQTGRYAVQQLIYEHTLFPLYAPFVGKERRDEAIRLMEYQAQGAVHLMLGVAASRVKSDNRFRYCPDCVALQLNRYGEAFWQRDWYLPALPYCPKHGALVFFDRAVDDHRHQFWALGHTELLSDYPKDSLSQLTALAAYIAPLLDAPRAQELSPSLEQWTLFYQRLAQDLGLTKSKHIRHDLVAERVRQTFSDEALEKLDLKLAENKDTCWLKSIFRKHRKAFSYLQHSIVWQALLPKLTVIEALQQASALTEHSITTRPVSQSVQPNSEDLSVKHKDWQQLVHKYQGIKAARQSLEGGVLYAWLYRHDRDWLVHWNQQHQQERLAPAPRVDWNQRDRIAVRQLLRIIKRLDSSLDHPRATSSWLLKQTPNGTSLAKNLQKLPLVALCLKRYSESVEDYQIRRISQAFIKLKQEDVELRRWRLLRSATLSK

TnsD 1-480 = target: T3, TnsD 1-480 (Escherichia coli (transposon Tn7), UniProt P13991 1-480)
T3 sequence: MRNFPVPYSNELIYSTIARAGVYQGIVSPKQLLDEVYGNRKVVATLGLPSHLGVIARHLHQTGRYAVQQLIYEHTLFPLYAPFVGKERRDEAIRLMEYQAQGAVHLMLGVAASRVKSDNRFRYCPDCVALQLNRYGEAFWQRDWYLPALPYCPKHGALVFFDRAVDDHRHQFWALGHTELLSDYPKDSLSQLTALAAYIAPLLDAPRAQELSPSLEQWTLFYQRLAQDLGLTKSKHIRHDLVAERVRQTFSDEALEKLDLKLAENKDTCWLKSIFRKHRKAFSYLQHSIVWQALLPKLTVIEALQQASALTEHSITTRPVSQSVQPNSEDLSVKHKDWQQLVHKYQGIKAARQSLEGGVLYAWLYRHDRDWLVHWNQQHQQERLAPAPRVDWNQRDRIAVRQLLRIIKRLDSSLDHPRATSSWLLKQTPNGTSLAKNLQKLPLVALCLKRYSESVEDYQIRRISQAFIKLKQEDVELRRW

TnsD 1-399 = target: T4, TnsD 1-399 (Escherichia coli (transposon Tn7), UniProt P13991 1-399)
T4 sequence: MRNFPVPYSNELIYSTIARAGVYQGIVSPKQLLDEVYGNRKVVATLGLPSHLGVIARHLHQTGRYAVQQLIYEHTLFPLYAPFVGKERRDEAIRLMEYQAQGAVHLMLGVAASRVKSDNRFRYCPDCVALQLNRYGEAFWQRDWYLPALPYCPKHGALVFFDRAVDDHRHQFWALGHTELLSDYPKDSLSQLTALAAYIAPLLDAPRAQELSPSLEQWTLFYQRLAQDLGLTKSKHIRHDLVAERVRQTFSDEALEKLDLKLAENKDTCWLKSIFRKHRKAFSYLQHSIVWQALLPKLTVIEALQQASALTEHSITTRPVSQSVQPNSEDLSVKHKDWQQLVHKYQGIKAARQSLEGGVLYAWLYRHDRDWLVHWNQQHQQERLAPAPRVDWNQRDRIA

TnsD 1-498 = target: T5, TnsD 1-498 (Escherichia coli (transposon Tn7), UniProt P13991 1-498)
T5 sequence: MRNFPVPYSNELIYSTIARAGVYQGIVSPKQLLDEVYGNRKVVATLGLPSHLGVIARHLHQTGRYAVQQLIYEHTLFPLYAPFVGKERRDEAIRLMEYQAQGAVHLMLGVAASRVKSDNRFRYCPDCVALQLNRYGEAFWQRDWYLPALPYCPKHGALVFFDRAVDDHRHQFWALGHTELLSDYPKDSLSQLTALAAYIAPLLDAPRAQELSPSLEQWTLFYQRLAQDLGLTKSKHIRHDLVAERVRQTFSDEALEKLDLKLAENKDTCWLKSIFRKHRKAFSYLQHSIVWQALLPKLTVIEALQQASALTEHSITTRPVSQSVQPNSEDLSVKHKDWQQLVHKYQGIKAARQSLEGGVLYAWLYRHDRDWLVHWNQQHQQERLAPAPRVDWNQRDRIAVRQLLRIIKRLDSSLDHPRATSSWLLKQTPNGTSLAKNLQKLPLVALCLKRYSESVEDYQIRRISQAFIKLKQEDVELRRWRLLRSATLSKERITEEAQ

Measured: binding result

B1: attTn7 wt (+23 to +58) (dsDNA)
DNA 1: CCGCGTAACCTGGCAAAATCGGTTACGGTTGAGTAA
DNA 2: TTACTCAACCGTAACCGATTTTGCCAGGTTACGCGG
no binding: all assays above

— paper PMC2918618, “Characterization of the TnsD-attTn7 complex that promotes site-specific insertion of Tn7” (Mobile DNA, 2010)
